The numbers were not newly measured in article PMC12669185, which cites them from elsewhere.

This data set concerns the target CCR2 (Homo sapiens) (UniProt P41597).
UniProt P41597, sequence (P41597 whole entry): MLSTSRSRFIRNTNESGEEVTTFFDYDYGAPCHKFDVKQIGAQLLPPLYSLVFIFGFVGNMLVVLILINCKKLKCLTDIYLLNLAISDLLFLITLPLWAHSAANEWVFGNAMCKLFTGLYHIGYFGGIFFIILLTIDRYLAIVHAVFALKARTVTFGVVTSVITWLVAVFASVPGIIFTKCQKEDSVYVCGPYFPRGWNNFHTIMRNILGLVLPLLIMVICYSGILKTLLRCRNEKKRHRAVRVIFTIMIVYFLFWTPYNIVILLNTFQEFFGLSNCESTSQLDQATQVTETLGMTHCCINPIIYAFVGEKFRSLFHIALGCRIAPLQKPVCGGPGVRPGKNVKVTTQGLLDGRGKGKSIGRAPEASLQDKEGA

As to CCL2 (from UniProt P13500), the Kd is 0.77 nM.
